Laboratory results as given in patent US9340577.
Values joined by “and” are separate entries in the source; they are usually repeats but may differ in a detail not shown here. Equal values may be shown once.

Columns and labels:
Assay in all cases: competition
Conditions in all cases: modification not given
[1] = target: T1, H-2Ld (mouse)
T1 chain 1: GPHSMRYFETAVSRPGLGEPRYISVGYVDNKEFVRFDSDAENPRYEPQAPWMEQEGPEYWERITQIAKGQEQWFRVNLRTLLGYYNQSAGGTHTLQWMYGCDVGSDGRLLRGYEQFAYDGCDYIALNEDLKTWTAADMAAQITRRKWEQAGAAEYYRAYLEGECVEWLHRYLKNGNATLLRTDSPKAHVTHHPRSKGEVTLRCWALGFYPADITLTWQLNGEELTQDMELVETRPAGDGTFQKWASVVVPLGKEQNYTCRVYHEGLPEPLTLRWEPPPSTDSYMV
T1 chain 2: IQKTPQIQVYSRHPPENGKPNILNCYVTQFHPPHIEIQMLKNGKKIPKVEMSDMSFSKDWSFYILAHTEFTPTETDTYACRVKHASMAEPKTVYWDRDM

[2] = target: HLA-B*3501 (human), P01889
[3] = target: HLA-B*5101 (human), P01889
[4] = target: HLA-B*3501 (human), P01889; remark: listed apart in the source
[5] = target: HLA-B*5301 (human), P01889
[6] = target: HLA-B*5401 (human), P01889
[7] = target: T2, H-2Kb (mouse)
T2 chain 1: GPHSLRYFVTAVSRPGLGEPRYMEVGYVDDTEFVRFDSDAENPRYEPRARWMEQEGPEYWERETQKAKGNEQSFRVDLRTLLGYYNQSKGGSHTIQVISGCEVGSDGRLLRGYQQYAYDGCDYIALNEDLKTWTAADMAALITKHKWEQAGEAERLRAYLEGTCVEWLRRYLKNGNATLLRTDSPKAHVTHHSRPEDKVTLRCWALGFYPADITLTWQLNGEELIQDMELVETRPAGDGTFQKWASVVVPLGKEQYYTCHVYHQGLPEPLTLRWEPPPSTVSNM
T2 chain 2: T1 chain 2

[8] = target: T3, H-2Db (mouse)
T3 chain 1: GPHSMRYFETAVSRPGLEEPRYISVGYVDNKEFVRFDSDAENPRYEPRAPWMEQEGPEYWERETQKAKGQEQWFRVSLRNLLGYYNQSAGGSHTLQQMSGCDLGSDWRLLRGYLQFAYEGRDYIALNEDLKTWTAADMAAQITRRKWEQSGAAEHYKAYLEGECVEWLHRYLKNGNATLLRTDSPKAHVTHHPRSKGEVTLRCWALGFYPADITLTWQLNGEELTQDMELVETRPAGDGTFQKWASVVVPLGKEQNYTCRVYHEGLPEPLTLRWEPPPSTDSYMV
T3 chain 2: T1 chain 2

[9] = target: T4, H-2Dd (mouse)
T4 chain 1: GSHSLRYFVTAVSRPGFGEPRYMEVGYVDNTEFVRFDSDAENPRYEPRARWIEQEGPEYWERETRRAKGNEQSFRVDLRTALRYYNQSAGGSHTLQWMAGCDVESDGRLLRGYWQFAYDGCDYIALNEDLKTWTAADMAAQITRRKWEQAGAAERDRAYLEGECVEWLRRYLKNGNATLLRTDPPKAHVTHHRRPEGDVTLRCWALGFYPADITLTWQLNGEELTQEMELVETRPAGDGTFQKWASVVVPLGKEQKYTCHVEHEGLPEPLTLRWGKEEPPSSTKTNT
T4 chain 2: T1 chain 2

[10] = target: T5, H-2Kd (mouse)
T5 chain 1: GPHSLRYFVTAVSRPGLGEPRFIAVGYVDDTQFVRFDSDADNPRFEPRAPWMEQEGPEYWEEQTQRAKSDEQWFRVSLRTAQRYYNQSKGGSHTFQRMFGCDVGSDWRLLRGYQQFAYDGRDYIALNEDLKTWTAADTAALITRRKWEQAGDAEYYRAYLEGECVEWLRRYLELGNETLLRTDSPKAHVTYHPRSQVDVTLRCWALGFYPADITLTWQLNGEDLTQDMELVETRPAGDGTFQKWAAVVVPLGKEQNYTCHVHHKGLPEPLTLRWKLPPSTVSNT
T5 chain 2: T1 chain 2

KAVYNFATM [LCMV GP 33]
IC50 [1]: > 27000 nM

FPVRPQVPL [HIV nef 84]
IC50 [2]: 43 nM | IC50 [3]: 12 nM | IC50 [4]: 2.2 nM | IC50 [5]: 92 nM | IC50 [6]: 71 nM

RPQASGVYM [LCMV NP 118]
IC50 [7]: > 31000 nM | IC50 [8]: > 44000 nM | IC50 [1]: 0.99 nM and 3 nM

YPHFMPTNL [1164.03]
IC50 [1]: 7.5 nM

SIINFEKL [Ova 257]
IC50 [9]: > 37000 nM | IC50 [7]: 3.7 nM and 1.5 nM | IC50 [10]: > 10000 nM
